This note sets out measurements from a protein production outcome set (Wang et al. 2014).

The nature of this data set: label from the status in PepcDB records.
For “DFLDVQKETPRIRIAIDRVGVKNIKFPLKIHDDFAFLTLNLFVDVPADRKGADMSRAVESIQKVINAGSYGERIGDIGIAICDEALSRFNYSEKAQCEVNIQYYRRSGERYLEYRMYVETAKDRKQIMKNEIGISYVTMTACPCAMETTRALISMDNPDISDAISAIPTITHNQRNVTKLTVDNRSKMITVWDLADVMERVQGKPLDSLLKRVEEGRLVYSAHRNPKFVEDVVREIAYEAARVLGVPDEATIKVSSESDESIHPHNAYAEIDT”, the protein production result was “failed”.
The value for “MEEMGSRSDTIMVASLNRETKEIKLVSVYRDTLLQLSDGTYNKANAAYAYGGEEEAVAMLNKNLDLNIEHYVSVDFSVLVHVIDALGGIDINVEEAENGMDIIPYLNNYVVEVIKNTGVDSAPFTQLGQQHLNGVQATAYARLRYGGGDDYKRTERQRQVLEQIAIKAQKAKLSTINKIIDKVFDNVKTNFTLTETIAYAKDVKSYIFGETQGFPYESTTADLDVGNSVVATDLASDVTKLHQFLFGENDYTPSSTVQSISEDISNSTYDTGESYDTEYDEYGYSQDYSGYDSGYTDNSYGTGGYQDSGYGDGSSGNGYTEDTGGDYVPPSDGGGTDSGSSDSNSQIPDTGTGDSGDTGGESLELEHHHHHH” was “not failed”; that for “MSVPGPSSPDGALTRPPYCLEAGEPTPGLSDTSPDEGLIEDLTIEDKAVEQLAEGLLSHYLPDLQRSKQALQELTQNQVVLLDTLEQEISKFKECHSMLDINALFAEAKHYHAKLVNIRKEMLMLHEKTSKLKKRALKLQQKRQKEELEREQQREKEFEREKQLTARPAKRM” was “failed”; that for “MSDSKSHDPNQMTGAAMIVRAMIDHGVEHIFGYPGGSVLPIYDELFQNSEKLQHILVRHEQGAGHAAEGYARSTGKPGVVLVTSGPGATNMVTPLADALMDSIPIVCITGQVPTHLIGNDAFQECDTVGITRPCTKHNWLVRDIKDLARVLHEAFYVATSGRPGPVVVDVPKDVQFATGTYHPPRKSDVHVSYTPRLKGDPGQIRKAVALLASAKKPVIYSGGGVVNSGEEAWKLLRELVEVTDFPITSTLMGLGAYPASGKNWLGMLGMHGTYESNMTMHDCDVMLCIGARFDDRITGRTDAFSPNSKKIHIDIDPSSINKNIRVDVPIIGDVAHVLADLLAAFKAEAKKADTKAWWLQIAAWRGRNSLAYKKNNDVILPQYAIERLYAATRGRDTYITTEVGQHQMWAAQFYGFERPRRWMTSGGLGTMGYGLPAALGVQVAHPDSLVIDIAGDASVQMTMQEMATAVQYELPIKIFILNNQYMGMVRQWQQLLHGNRLSHSYTEAMPDFVKLADAYGGVGMQVFKPSDLDGAIQDMIKVKKPVLFDCRVASLENCFPMIPSGKAHNEMLLPSEANDETTAAAFAGGGALV” was “failed”.
As to “MKIKACIFDMDGTLVNSIMDIAFSMNSALSNLGYSKIELSKFNALVGRGFNKFVIDTLKLLSLEHDNPNLQEKLYKEFVKEYNKNLSFQTKPYENIKPLLETMNKLNIPIGILSNKNHEELINLVKNIFGNILFFEIRGYSKNFPPKPDPENALDMILELNAQKEEIAYIGDSDVDMLTALNAGFMPIGVSWGFRSVQELKESGAKHIIHNPLELLDLIK”, the protein production entry is “failed”.
For “MGWKMQATVTEIGKHAIDDSEKMIILFGETATDTLKQHAVIQSFPEKDQVTLAEGDHLKIGDTNYTITKVGSFANSNLQSIAHSTLIFADAPTDEDDVIRNGVYLTPHQLPKITIGTTIDYLVNGA”, the protein production result is given as “not failed”.
Then “VNFEVKDQTLMMELVPERLRGETATFDIEADGKVYVEKGRRVTARHIRQLEKDGVNFIEVPVEYIVGKVSAKDYVNEATGELIITANQEISLEALANLSQAG”, with “not failed”; and “MIVAVESLDTSKKRKLHAEESDLLPLPKHFCSEHQASLVNSSCPSSVIDYAECSYAMENTKTSDEASSSASFTGPSLYMFKDSIYSTGSSSSGYAATSSIEQCFSKVDHKTQEDTQDFTHMEFIYHDSEFAVEDLQEVLNPVESYILSSARWSVSNQDSKEATTKPTIDQEFEQYFSTLMM”, with “failed”.
On to “MVVHGGAAYIRAMDHLPVDPARYGAFLVAMFVMAITPGPANLFAIATGMEKGKGAALAGVAGMNCATLIWFIGSALGLGALIIAFPQAFHLLALAGAAYLVWLGLKSLWAGWKNAESHAVAAVRGGKSAFVDGFAVQIANPKALLFFTAVLPPFLDVDRPLVPQLLMFACATIGMDLISMSAYGVGGAALSDRMNEPGFRRGFAILVGVLLITAAGLIVSRG”, for which the protein production entry is on record as “failed”.
Consider “MNLYSLLLSLITGCFLLAQGGTSFSSPVETEKSAVTAQSILEKADEIRFPQDSFQVNVAIRTAAPDHAEDLYRYQVLSKGNENSIVMITEPASERGQAILMKGRDLWVFMPSVSQPIRLSLSQRLTGQVANGDIARANFTGDYHPQLLRNESIDDEDYYVLELTGIDRSVTYQKVLLWVNQSNFRPYKAEFYSVSGRLLKTSRYENFDNILGEMRPTRIIMEDALKSGEVSVLDYSDMKLRDLPDKIFTKDYLKRLE”, for which the protein production result is reported as “failed”.
Then “MDRKLLHLLCSPDTRQPLSLLESKGLEALNKAIASGTVQRADGSIQNQSLHEALITRDRKQVFRIEDSIPVLLPEEAIATIQIANFPDKLEHHHHHH”, with “not failed”.
The value for “SSNQTPYIGSKISLISKLDIRYEGILYTVDTNDSTIALAKVRSFGTEKRPTANPVAARDDVYEYIIFKASDIKDLIVCDTPKMANIGGGLPYDPAIISVSSRSAPASDGAPAASAGSSRAGTPSRNSPLGQIIQNQRPGRGGYQQNFQANRGYNNYRGGFAGGYNNQRGHNNYGVPRVNHREKLKFESDFDFEKANEKFQEVLVDNLEKLNIEDKAEPEVEEKKDAAFYDKKTSFFDNISCESLEKAEGKTGRPDWKKERETNQETFGHNAVRSLNYRRGFGGRGRGGNRGYGGYNNGYQHQHQHRGGYNGGYRQNNGGYRRGGYAPRDNQGNTAAAAEQ” was “failed”; that for “MHLGVIGATGTIGSRVVTEALARGHHVTAFTRDSTQIDEDRGNVVWKSLDVLDAASVAAGISGLDVLISGFQPGNAAKDIADTVARSIADPTVYATAARSLLKALESHPRTRLIVIGGAGSLEIEPGVVRADSDELLHSSLDALGLPRQYAAAVRGHRDALNVLRTSNRLWTYFSPAEDIAPGERTGRFRTGGDQPVLDAEGRSRISVEDAAVALVDEAELPRFVQRRFTIGY” was “failed”.
Then “MMSTKNGTNQARTSRDVGSELIYLTKALKAPALRDAAARLAERARDEGWSHEEYLAACLQREVAARDSHGAEGRIRAARFPSRKSLEDFDFDHQRSVKREVIAHLGTLDFVAGKENVIFLGPPGTGKTHLATGLGIRACQAGHRVAFGTAAQWVARLAEAHQAGRLSDELTRLGRIPLIVVDEVGYIPFEPEAANLFFQFISGRYERASVIVTSNKPFGRWGEVFGDDTVAAAMIDRLVHHAEVISLKGDSYRMRGRDLGRVPAANTGE”, with “failed”; and “MVLIGTVVNGAAIVIAALIGLLVKNIPERVKTTLMQAIGLAIVLLGVKMGLQTEQFLIVICSLVIGGVIGEMINLEKRLDHLGRWIESKVGGKKDGSIATAFVTTTLIYVVGAMAVLGALDSGLRGDHSVLLTKALLDGFLAILFTSTLGIGVLFSAIPVVLYQGSIALFASQIDQYVPTALMDSFITEMSATGGVMIVAIGLNLLNVVNIRVANLLPSLVIVAVLVTFVYKGFPF”, with “failed”; and “MADFKIVISDPQAPKEETVVKVKVVGDPEIKFDENVKEGFELPILKMNSKTAEKIKAVHGVATIRMYKPGTKDKVKITGKIIVDDNIPENEVRVNAEQLVNATGTNELEGELFRARAWQIRINDDRTKLLIGLKIGDEFDGSIVGLKNVKLKIRGGSDNSGFPMRPDVMGGVKKRVLLSGPPGFHPREKGERRRKMIRGNTITEDIVQINTVIKYV”, with “failed”.
On to “MSDVTVVAMVTNAYPVNEFQRSSGGTGKVRNIMLEDGTGSIRMALWDSDAETEISEGDVVKLIHGYAKESGEYMDLSTGRFGRLEHHHHHH”, for which the protein production result is listed as “failed”.
The value for “MSSDKTLNVKATGIIALAVMCSRVLGLIREVLFNALFGSASMGIFLIAFRAPNLLRDLFAEGALSVSFITVFSKKIETEGEKSAWQLASKMLTLTSVFMSILCLFGIIFAKYLIFILAPGFSVKDAETTIFLTQLMFPFILLVSLAAIVMGMLNSKNVFGMPALASSFFNIGSILGGALCGWFIDPSFGERALIGLAIGTVIGGLLQLGVQFPSLRKVGFYFKPNFHWYDSGVRNTLILTIPAVIAASAVQINVLINSGFASYLGKEAVTWLNSAFRLMQFPLGVLGVAIATITLPVVSRLAATNNHSQFGSTLARAIRLAVFLTMPAAVGLWFFATPIISLIYEHGKFHASDSLQTAYALQFYALGLVAYSCIKVLSPAFYAIDKKWTPMIVSFATIILNIILNYFLIFKLSMGHRGLALSTTVSATVNFLVLYVLMTRLHNLQNRYLFNTILRCVLASAILGFMCQSIFAYGADFLYHPSFWIRAVSLAISISFAVLVYLSMCVILRVDEAKSIFMIIRHRLGFPIKFKSKQV” was “failed”; that for “MAASFAFLRDIRPYKTSWRIQVKVFHSWRQYTSMTGETLELVLVDAHGVKIHASVKKDLVSNFVNNLLLNEWRFIETFALNHASGQFRPTGHLYKMTFVTGTQCILLDVMGQVVDIGELETLEAKNKPTIKLDFELRDDTDERMSCTLWGAFAQSVFSACEFADGQMVICVLRFAKIKSYKGVRSFSNSFYASQVHINPDFPEVQAFVSRVPKFHMVTVKQDDDCKQYERKSIRDFLHSMEVRVVCTIYALDTDWSWYYFSCRNCNKKVTHIHAGVNTTSLKSSKPRFWCDVCKNGVTNVQAK” was “failed”.
Then “MSKDVKPTRKNLMAIEDRIELSERGHDTLEKKRDGLIMEFMDILDQAQDVRSDLDENYERAQRNINMARAMEGDVAVRGAAAALKEHPEITTQSKNIMGVVVPQIESTKVKKSLDQRGYGLVGTSARIDEAADAYEELLETIILAAEVETAMKKMLDEIEKTKRRVNALEFKLLPELHEAQEYIEQKLEEQEREEIFRMKKIKAKKEEEEEENPVADTESAAEAAVTEAGQ”, with “failed”.
Then “HVAGHHLAPTIIAADQHWLLVNWLEGDVVTHAQFIELSNNGQLAQLLTRLHHLPASGYRLDLRAQLIRYAGQIDTKRLSPSWLRLHQHFQRRSPPQPVKLAPLHMDIHPGNLLATPSGLKLIDWEYAADGDIALDIAALFRGNGWSAPQQQAFLQHYCLNEQGYPDIDRLSRQIQRWVPWVDYLMLMWFEVRWQQTGD”, with “failed”; and “MNQLEFEQVSLYQIIVDSEKLAQEIYYQIEDEEISFYEAAYLYDVDAVRRQRCGYEGKVYRFSLPVNVATVIFRTSPKQLISPLQTEQGYHLFMVEEFIPAELEHHHHHH”, with “failed”; and “MRQARGRVHKNLGARVGSARPRSSLGHRTGIMKGQDMPGTVRLHRVLTTSPEKVYRAFVEADALAKWLPPNGFTCTVDHLEAKVGGTFKMSFRNFTTGGSHAFGGEYLELVPGERLRYTDRFDDPNLPGEIQVTVILKKVSVGTEIDITQAGIPDVIPVEACYLGWQESLRNLAKLVEPEINQ”, with “failed”.
Regarding “TSSLHPTRGKLLKRFAQIGPYIREQQCQESQFFFDCLAVCVNKKVTPEKREFWGWWMELERNGEQLIYYYQVGLFDKNGDWVNQVISKKDVIESIHETLIRFHDFLQAAVSELEMTLVPDEKMSNFPLPL”, the protein production entry was “not failed”.
On to “IIAGETSIPSQGENMPAYHARPKNADGPLPIVIVVQEIFGVHEHIRDLCRRLAQEGYLAIAPELYFRQGDPNEYHDIPTLFKELVSKVPDAQVLADLDHVASWAARHGGDAHRLLITGFCWGGRITWLYAAHNPQLKAAVAWYGKLVGEKSLNSPKHPVDIAVDLNAPVLGLYGAKDASIPQDTVETMRQALRAANATAEIVVYPEADHAFNADYRASYHEESAKDGWQRMLAWFAQY”, for which the protein production result is “not failed”.
